Assay results as given in PMC12775068.

Molecular target: MUC2C-N (human MUC2 residues 4256-4803, C4786A; PTS3, VWCN, D4 and VWC1) (human)
Assay: cross-linking

With “MUC2C-N (human MUC2 residues 4256-4803, C4786A; PTS3, VWCN, D4 and VWC1) (domain or fragment)” the stoichiometry N was 2.
